Measurements published in US20180207294A1, “NON-ALCOHOLIC FATTY LIVER REGULATING FACTOR 14-3-3 PROTEIN” (Korea University Research and Business Foundation, priority 2015, published 2018).
Residue numbers refer to the chain shown, from its start.

Columns and labels:
Assay type in all cases: cell-based
SREBP-1c protein = SREBP-1c protein expression by western blotting, HepG2 cells; details: 14-3-3 overexpression, 200 μM oleic acid 72 hours, FIG. 7D
Method: In addition, HepG2 cells were seeded in a 6-well plate at a density of 5×10^5 cells per each well, and then transfected with HA-14-3-3β DNA (1 μg) or HA-14-3-3γ DNA (1 μg) using an E-fection plus reagent (Lugen). A ratio of DNA to the E-fection plus reagent was 1:2, and this method was performed according to a manufacturer's manual. After transfection, the cells were treated with 200 μM of oleic acid (OA) for 72 hours, washed with ice-cold PBS, and lysed with 80 μl/well of a lysis buffer (150 mM NaCl, 1 mM EDTA, 1% Nonidet P-40, 5% glycerol, 25 mM tris-HCl, pH 7.5, protease inhibitor added), the lysed cells were centrifuged at 10,000×g and 4° C. for 10 minutes to extract proteins, and 30 μg of the proteins was separated on a 10% SDS-PAGE gel and identified using each of the antibodies (HA, SREBP-1c: Santa Cruz) by western blotting, and all antibodies were used in a ratio of 1:3000. To verify whether such regulation of mRNA expression of the target genes of PPARγ2 is the same as in the expression of a protein thereof, an expression amount of the SREBP-1c protein was checked by western blotting. As a result of the experiment, it was confirmed that the expression of the SREBP-1c protein was increased by the overexpression of 14-3-3β and reduced by the overexpression of 14-3-3γ (see FIG. 7D).

PPARγ2 = target: T1, PPARγ2 (Homo sapiens, UniProt P37231); experiment: aP2 promoter luciferase assay of PPARγ2 transcriptional activity in HEK-293T cells
T1 construct: host or cells: HEK-293T
T1 sequence (P37231 1-505): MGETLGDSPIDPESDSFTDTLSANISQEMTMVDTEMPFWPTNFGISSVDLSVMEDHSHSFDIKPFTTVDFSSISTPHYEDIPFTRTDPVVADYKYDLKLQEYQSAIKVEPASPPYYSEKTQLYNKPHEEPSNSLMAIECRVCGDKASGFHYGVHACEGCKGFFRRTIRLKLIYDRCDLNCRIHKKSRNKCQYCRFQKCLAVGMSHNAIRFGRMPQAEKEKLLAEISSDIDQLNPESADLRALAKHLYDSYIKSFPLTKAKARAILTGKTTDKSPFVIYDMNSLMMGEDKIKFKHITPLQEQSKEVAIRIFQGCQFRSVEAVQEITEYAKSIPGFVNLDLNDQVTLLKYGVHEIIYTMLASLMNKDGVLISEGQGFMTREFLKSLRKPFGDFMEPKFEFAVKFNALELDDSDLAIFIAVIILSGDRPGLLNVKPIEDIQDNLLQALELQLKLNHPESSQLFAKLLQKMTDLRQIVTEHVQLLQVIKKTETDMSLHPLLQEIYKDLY
Method: The transcriptional activity of PPARγ2 plays a vital role in expression of liver diseases-associated proteins. Thus, the transcriptional activity of PPARγ2 was measured using an aP2 promoter regulated by PPARγ2, and the role of 7 types of 14-3-3 proteins was investigated.
For this, HEK-293T cells were seeded in a 12-well plate at a density of 1×10^5 cells per each well, and then transfected with an aP2 promoter construct (0.5 μg) and 14-3-3 isoform proteins (α, β, γ, ε, ζ, π, θ) (0.5 μg) or si-14-3-3β and si-14-3-3γ siRNA (5 nM and 10 nM, Santa Cruz) using an E-fection plus reagent (Lugen). A ratio of DNA to the E-fection plus reagent was 1:2, and this method was performed according to a manufacturer's manual. After transfection, the corresponding cells were treated with 10 μM of pioglitazone (Pio, Santa Cruz) for 24 hours, washed with ice-cold PBS, and lysed using 80 μl/well of a reporter lysis buffer (Promega, Madison, Wis.), and the lysed cells were centrifuged at 10,000×g and 4° C. for 10 minutes to collect a supernatant, and luciferase activity was measured. As an instrument, Luminometer 20/20n (Turner Biosystems, Sunnyvale, Calif.) was used. For normalization, the cells were cotransfected with pSV40-β-galactosidase. For the collected supernatant, β-galactosidase activity was measured and the luciferase activity was revised, and the obtained values were plotted. At this time, a β-galactosidase enzyme analysis system (Promega, Madison, Wis.) was used, and analysis was performed using a DU530 spectrophotometer (Beckman Instruments, Palo Alto, Calif.).

PPARγ2 S273A mutant = target: T2, PPARγ2 S273A mutant (Homo sapiens, UniProt P37231, S273A); experiment: aP2 promoter luciferase assay with PPARγ2 S273A mutant (HEK-293T); details: FIG. 4C, 4D
T2 construct: expressed in transfected cells; host or cells: HEK-293T
T2 sequence (P37231 1-505 S273A): T1 sequence (P37231 1-505) with S273A
Method: In addition, HEK-293T cells were seeded in a 12-well plate at a density of 1×10^5 cells per each well, and then transfected with an aP2 promoter construct (0.5 μg), Flag-PPARγ2 (S112A) DNA (0.5 μg) or Flag-PPARγ2 (S273A) DNA (0.5 μg), and mGST-14-3-3β DNA (0.5 μg) or mGST-14-3-3γ DNA (0.5 μg) using an E-fection plus reagent (Lugen). A ratio of DNA to the E-fection plus reagent was 1:2, and this method was performed according to a manufacturer's manual. The corresponding cells were washed with ice-cold PBS, and lysed using 80 μl/well of a reporter lysis buffer (Promega, Madison, Wis.), and the lysed cells were centrifuged at 10,000×g and 4° C. for 10 minutes to collect a supernatant, and luciferase activity was measured. As an instrument, Luminometer 20/20n (Turner Biosystems, Sunnyvale, Calif.) was used. For normalization, the cells were cotransfected with pSV40β-galactosidase. For the collected supernatant, β-galactosidase activity was measured and the luciferase activity was revised, and the obtained values were plotted. At this time, a β-galactosidase enzyme analysis system (Promega, Madison, Wis.) was used, and analysis was performed using a DU530 spectrophotometer (Beckman Instruments, Palo Alto, Calif.).

[1] = 14-3-3β / 14-3-3γ overexpressed according to concentration, FIG. 1B, 1C
[2] = overexpression of 14-3-3 isoform proteins (0.5 μg), 10 μM pioglitazone 24 hours, FIG. 1A

| Substance | expression of the SREBP-1c protein (SREBP-1c protein) | transcriptional activity of PPARγ2 (activity of the aP2 promoter) (PPARγ2; [1]) | transcriptional activity of PPARγ2 (activity of the aP2 promoter) (PPARγ2; [2]) | change in transcriptional activity of PPARγ2 S273A mutant on 14-3-3 overexpression (PPARγ2 S273A mutant) |
| --- | --- | --- | --- | --- |
| 14-3-3γ: 14-3-3 isoform protein, overexpressed by DNA transfection; regulating factor that decreases transcriptional activity of PPARγ2 | reduced | reduced the transcriptional activity of PPARγ2 in a concentration-dependent manner | decreased the transcriptional activity of PPARγ2 | no change |
| 14-3-3β: 14-3-3 isoform protein, overexpressed by DNA transfection; regulating factor that increases transcriptional activity of PPARγ2 | increased | increased the transcriptional activity of PPARγ2 in a concentration-dependent manner | increased the transcriptional activity of PPARγ2 | no change |
